# Laboratory results published in publication PMC2925389.
# B1: D-1 21/41-mer (dsDNA)
# DNA 1: CGCAGCCGTCCAACCAACTCA
# DNA 2: GGACGGCATTGGATCGACGATGAGTTGGTTGGACGGCTGCG
# Tests used:
# [1] = target: T1, yPolη truncated (catalytic core) (Saccharomyces cerevisiae, UniProt Q04049 1-513); assay: EMSA; koff 0.008 ± 0.001 s-1 (DNA trap); 23°C, buffer A (composition not in material; without BSA for fluorescence); EMSA 10 nM DNA, 10-450 nM protein, 20 min, 4.5% native gel, 40 mM Tris in running bu
# T1 sequence: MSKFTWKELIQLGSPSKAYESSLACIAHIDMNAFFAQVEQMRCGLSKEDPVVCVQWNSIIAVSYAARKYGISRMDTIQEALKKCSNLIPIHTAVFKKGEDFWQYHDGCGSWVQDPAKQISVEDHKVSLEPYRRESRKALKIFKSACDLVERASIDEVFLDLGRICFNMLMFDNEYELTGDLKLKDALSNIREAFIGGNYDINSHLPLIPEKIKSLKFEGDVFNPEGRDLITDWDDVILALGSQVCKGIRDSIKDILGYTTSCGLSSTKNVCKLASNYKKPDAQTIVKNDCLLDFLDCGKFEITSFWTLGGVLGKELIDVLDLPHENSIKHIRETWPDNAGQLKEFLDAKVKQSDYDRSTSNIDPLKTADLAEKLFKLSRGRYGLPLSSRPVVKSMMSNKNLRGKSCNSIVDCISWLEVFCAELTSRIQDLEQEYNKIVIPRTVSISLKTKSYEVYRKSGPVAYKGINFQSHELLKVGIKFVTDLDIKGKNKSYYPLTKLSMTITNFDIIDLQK
# [2] = target: T2, yPolη full-length (Saccharomyces cerevisiae, UniProt Q04049 1-632); assay: EMSA; koff 0.0041 ± 0.0008 s-1 (DNA trap); 23°C, buffer A (composition not in material; without BSA for fluorescence); EMSA 10 nM DNA, 10-450 nM protein, 20 min, 4.5% native gel, 40 mM Tris in running bu
# T2 sequence: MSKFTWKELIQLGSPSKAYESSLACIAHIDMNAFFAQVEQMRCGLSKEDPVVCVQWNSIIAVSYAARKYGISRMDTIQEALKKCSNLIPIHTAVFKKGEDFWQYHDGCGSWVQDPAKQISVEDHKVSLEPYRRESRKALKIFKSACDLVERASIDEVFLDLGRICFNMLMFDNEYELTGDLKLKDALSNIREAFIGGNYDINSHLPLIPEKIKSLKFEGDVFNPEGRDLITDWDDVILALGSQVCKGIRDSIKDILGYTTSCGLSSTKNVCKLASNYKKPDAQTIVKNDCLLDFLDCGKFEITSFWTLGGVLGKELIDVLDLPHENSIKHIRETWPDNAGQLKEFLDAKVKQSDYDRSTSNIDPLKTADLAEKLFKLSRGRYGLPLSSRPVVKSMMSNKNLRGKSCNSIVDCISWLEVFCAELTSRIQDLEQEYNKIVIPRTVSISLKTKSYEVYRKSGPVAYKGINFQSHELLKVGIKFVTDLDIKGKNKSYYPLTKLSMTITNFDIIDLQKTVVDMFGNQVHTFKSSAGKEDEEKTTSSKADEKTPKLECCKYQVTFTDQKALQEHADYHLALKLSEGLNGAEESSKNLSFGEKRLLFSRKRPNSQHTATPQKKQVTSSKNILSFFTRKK
binder,measurement,setting,value
B1,Kd,[1],0.034 ± 0.003 µM
same,Kd,[2],0.016 ± 0.001 µM
